This note sets out measurements from patent US20100317054A1 (VIRGINIA TECH INTELLECTUAL PROPERTIES, published 2010).

T1: human ICAM-3-Fc chimera (human, UniProt P32942 30-485, limits assumed)
T1 construct: Bought from R&D Systems; soluble immunoadhesin; also called hICAM3-Fc; hICAM-3-Fc; not shown: human IgG Fc (detected with anti-human IgG Fc antibody)
T1 sequence (looked up): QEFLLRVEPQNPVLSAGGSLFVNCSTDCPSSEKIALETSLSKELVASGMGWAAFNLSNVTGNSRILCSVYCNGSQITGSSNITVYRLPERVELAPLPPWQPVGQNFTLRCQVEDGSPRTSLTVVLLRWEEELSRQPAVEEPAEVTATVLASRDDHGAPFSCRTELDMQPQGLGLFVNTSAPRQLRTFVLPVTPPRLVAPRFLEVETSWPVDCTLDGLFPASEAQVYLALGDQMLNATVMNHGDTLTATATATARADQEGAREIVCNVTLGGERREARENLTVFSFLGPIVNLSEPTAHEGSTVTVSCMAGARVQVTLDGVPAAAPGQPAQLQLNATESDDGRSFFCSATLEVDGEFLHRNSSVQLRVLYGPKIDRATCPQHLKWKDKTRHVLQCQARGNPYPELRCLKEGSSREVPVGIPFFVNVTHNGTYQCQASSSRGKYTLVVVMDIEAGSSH

B1: porcine DC-SIGN (receptor)
chain: MAEICDPKEPEEKTWTGPVLVERDLGLLRRLRNSPGCLTWPLLLLLLFVSLGFFMLLVTTLVQVSRIHQSLQRERETSRRPTAQEKIQSSLDKFLQQMTWMNATLAGLCHPCPWHWEFFQGRCYLFSQTQSDWKSSLSACKDIGAQLVIINSTAEQKFLKSWYVRYNKATWIGLSDDTNEGSWQWVDNSPLQLSFWKEGEPNNHGDEDCAELHNDGWNDSKCTVENAWICEKPSSPCPML
notes: In the Western blot it stood in a cell lysate (band of about 48 kDa, probably glycosylated); also called pDC-SIGN; BHK-PDCS (BHK-21 cells stably expressing it)
B2: human ICAM-2-Fc chimera (Fc fusion, UniProt P13598 25-223, looked up)
chain: KVFEVHVRPKKLAVEPKGSLEVNCSTTCNQPEVGGLETSLDKILLDEQAQWKHYLVSNISHDTVLQCHFTCSGKQESMNSNVSVYQPPRQVILTLQPTLVAVGKSFTIECRVPTVEPLDSLTLFLFRGNETLHYETFGKAAPAPQEATATFNSTADREDGHRNFSCLAVLDLMSRGGNIFHKHSAPKMLEIYEPVSDSQ
notes: Bought from R&D Systems; soluble immunoadhesin; also called hICAM2-Fc; hICAM-2-Fc; not shown: human IgG Fc (detected with anti-human IgG Fc antibody)
B3: human DC-SIGN (receptor, UniProt Q9NNX6 1-404, looked up)
chain: MSDSKEPRLQQLGLLEEEQLRGLGFRQTRGYKSLAGCLGHGPLVLQLLSFTLLAGLLVQVSKVPSSISQEQSRQDAIYQNLTQLKAAVGELSEKSKLQEIYQELTQLKAAVGELPEKSKLQEIYQELTRLKAAVGELPEKSKLQEIYQELTWLKAAVGELPEKSKMQEIYQELTRLKAAVGELPEKSKQQEIYQELTRLKAAVGELPEKSKQQEIYQELTRLKAAVGELPEKSKQQEIYQELTQLKAAVERLCHPCPWEWTFFQGNCYFMSNSQRNWHDSITACKEVGAQLVVIKSAEEQNFLQLQSSRSNRFTWMGLSDLNQEGTWQWVDGSPLLPSFKQYWNRGEPNNVGEEDCAEFSGNGWNDDKCNLAKFWICKKSAASCSRDEEQFLSPAPATPNPPPA
notes: whole, on cells; Positive control cell line; also called hDC-SIGN; CD209

The target of test [1] is T1, human ICAM-3-Fc chimera. Description: flow cytometry on BHK-PDCS cells, 1 ug Fc chimera, FITC anti-human IgG Fc. The text has this:
(§1) FIGS. 8a to 8e show the binding of human ICAM-3 and ICAM-2 immunoadhesins to BHK cells stably expressing pDC-SIGN. FIG. 8a provides the detection of surface expression of pDC-SIGN protein on stable BHK cell lines. BHK-21, and unsorted or sorted BHK-PDCS cell lines were stained with anti-pDC-SIGN antibody and FITC-labeled goat anti-rabbit IgG, respectively, and analyzed by flow cytometry. Dashed open histograms represented the background staining The expression of pDC-SIGN was indicated by the cross-hatched histograms. Expression of hDC-SIGN on the surface of 3T3-HDCS cell line was also verified by staining with a hDC-SIGN monoclonal antibody (right, bottom panel). FIGS. 8b to 8e illustrate the calcium-dependent binding of human ICAM-3 and ICAM-2 immunoadhesins to BHK-PDCS and 3T3-HDCS cells. Dashed open histograms represent cells staining only with a FITC labeled anti-human IgG Fc antibody. Results are representative of three independent experiments. Data are expressed as histogram analysis of 10,000 cells.
(§2) Human ICAM-3 and ICAM-2 binding assay: Adhesion of human ICAM-3 or ICAM-2 to pDC-SIGN proteins was assessed with BHK-PDCS and BHK-21 cells by measuring detectable cells that bound the soluble immunoadhesins through FACS analysis. 3T3-HDCS cells were used as the positive control. […] Fluorescence was monitored using FACSAria (BD Biosciences, San Jose, Calif.).

Test [2] addresses B2. The description is as above.
Source text: as §1, §2

For test [3], the target named is T2, recombinant human IgG1 Fc (human, UniProt P01857-1 100-330 = IgG part).
T2 construct: domain: Fc; Negative control for the ICAM-Fc chimeras; also called hFc
Description: flow cytometry on BHK-PDCS cells, FITC anti-human IgG Fc detection. Here is the method: (§3) Human ICAM-3 and ICAM-2 binding assay: Adhesion of human ICAM-3 or ICAM-2 to pDC-SIGN proteins was assessed with BHK-PDCS and BHK-21 cells by measuring detectable cells that bound the soluble immunoadhesins through FACS analysis. 3T3-HDCS cells were used as the positive control. Cells (1˜3×10⁵ per sample) were resuspended in 100 μL PBS containing 2% FBS and incubated for 60 min at 4° C. with 1 μg of recombinant human IgG₁ Fc (hFc), human ICAM-3-Fc (hICAM3-Fc) chimera or hICAM2-Fc chimera (R&D Systems, Minneapolis, Minn.) in the presence or absence of mannan (100 μg/mL) or ethylene glycol tetraacetic acid (EGTA, 10 mM). Cells were then washed twice and incubated for another 45 min at 4° C. with 0.5 μg of FITC-labeled anti-human IgG Fc antibody (KPL, Inc., Gaithersburg, Md.) in 100 μL PBS containing 2% FBS. Fluorescence was monitored using FACSAria (BD Biosciences, San Jose, Calif.).

Test [4] addresses B3. As to the kind of experiment: flow cytometry histograms, FIGS. 8b-8e.
Source text: as §1, §2

In test [5] the target is T1, human ICAM-3-Fc chimera. As to the kind of experiment: flow cytometry on 3T3-HDCS cells, 1 ug Fc chimera, FITC anti-human IgG Fc.
Source text: as §1, §2

Test [6] has as its target T2, recombinant human IgG1 Fc. Description: flow cytometry on 3T3-HDCS cells, FITC anti-human IgG Fc detection. As to the method: as §3

Regarding B1, the binding result in test [1] was “binds”; in test [2], “binds”; in test [3], “no binding (tested: 1 ug in 100 uL)”.
Turning to B2, the binding result in test [4] is given as “binds”.
Consider B3, for which the results for the binding result in test [5] and in test [6] were “binds” and “no binding (tested: 1 ug in 100 uL)”, respectively.
